Measured values reported in patent US20070178531A1 (BIOCHECK, published 2007).
Changes are numbered by the printed parent chain.

B1: rabbit monoclonal anti-human Id3, clone #BCH-4/#3-3 (antibody, V domains shown)
VH: QSVEESGGRLVTPGTPLTLTCTVSGIDLSSYAMSWVRQAPGKGLEWIGVIFPSNNVYYASWAKGRFTISKTSTTVDLKITSPTTEDTATYFCASMGAFDSWGPGTLVTVSS
VL: QVLTQTPSPVSAAVGGTVTINCQASQSIYNDNDLAWFQQKPGQPPKLLIYDASTLTSGVPSRFKGSGSGTQFTLTISDLDCDDAATYYCAARYSGNIYGFGGGTEVVVK
notes: Rabbit IgG from a rabbit hybridoma; also called h Id3 MoAb 3-3
B2: rabbit monoclonal anti-mouse/human Id3, clone #BCH-4/#16-1 (antibody, V domains shown)
VH: QSVEESGGRLVTPGTPLTLTCTASGFSLSSYYIHWVRQAPGKALEWIGYISDGGTTYYASWAKGRFTISKTSSTTVDLKMTSLTTEDTATYFCARQGFNIWGPGTLVTVSL
VL: AVLTQTPSPVSAAVGGTVTISCQSSQSVYNNNWLSWFQQKSGQPPKLLIYETSKLESGVPSRFKGSGSGTQFTLTIIDVQCDDAATYYCLGGYWTTSDNNIFGGGTEVVVK
notes: Rabbit IgG from a rabbit hybridoma; also called m/h Id3 MoAb 16-1
B3: rabbit monoclonal anti-mouse/human Id3, clone #BCH-4/#17-3 (antibody, V domains shown)
VH: B2 VH with S30N, Y31V, A43G, G54D, T56A, Y57R, S60T, D77N
VL: B2 VL with T19S, Y29W, S41P, I77S, I101V
notes: Rabbit IgG from a rabbit hybridoma; also called m/h Id3 MoAb 17-3; BCH-3/#17-3
B4: rabbit monoclonal anti-mouse/human Id3, clone #BCH-4/#6-1 (antibody, V domains shown)
VH: B2 VH with S30N, Y31V, A43G, G54D, T56A, Y57R, S60T, D77N
VL: B2 VL with T19S, Y29W, S41P, I77S, I101V
notes: Rabbit IgG from a rabbit hybridoma; also called m/h Id3 MoAb 6-1
B5: rabbit monoclonal anti-mouse/human Id3, clone #BCH-4/#42-1 (antibody, V domains shown)
VH: B2 VH
VL: B2 VL with T95S
notes: Rabbit IgG from a rabbit hybridoma; also called m/h Id3 MoAb 42-1

Assays:
Mouse Id2: Histidine [1] = target: T1, Mouse Id2: Histidine (mouse, UniProt P41136 1-134, limits assumed); assay: ELISA, Ab 0.250 µg/ml
T1 construct: Fusion protein made in E. coli from vector pGW07; also called m-Id2: His; not shown: His tag
T1 sequence (looked up): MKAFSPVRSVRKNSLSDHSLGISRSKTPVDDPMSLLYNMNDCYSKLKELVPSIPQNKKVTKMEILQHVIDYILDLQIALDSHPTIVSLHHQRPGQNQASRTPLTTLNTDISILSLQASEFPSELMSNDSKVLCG
Protocol: (§1) The rabbit monoclonal anti-human Id3 (clone #3-3) and the rabbit monoclonal anti-mouse/human Id3 (clones #6-1, 16-1, 17-3, and 42-1) produced in Example 6 were tested reactivity against the following antigens: mouse Id1:His, human Id1:His, mouse Id2:His, human Id2:His, mouse Id3:His, human Id3:His, mouse Id4:His, human Id4:His and GST.
(§2) 1. Microtiter wells (prepared in accordance with Example 6) were coated (0.1 μg/well) with mouse Id1:His, human Id1:His, human Id2:His, human Id3:His, and 1.0 μg/well with GST. [0155] 2. Antibody Diluent: 0.25% (w/v) BSA in 0.015M KPO₄ Buffer, 0.85% (w/v) NaCl, 0.1% (w/v) NaN₃, pH=7.40 [0156] 3. Rabbit monoclonal anti-human Id3 (clone #3-3) prepared in Example 7 was diluted to […] with the antibody diluent. […] 4. Rabbit monoclonal anti-mouse/human Id3 (clones #6-1, 16-1, 17-3, 42-1) prepared in Example 7 was diluted to 0.005, 0.010, 0.025, 0.05, 0.10, 0.25, and 0.50 μg/ml with the antibody diluent. […] 5. Conjugate Diluent: 50% (v/v) which consists of an aqueous solution containing Fetal Bovine Serum in 0.05 M Tris, 1% (v/v) Proclin-300, pH 7.6. [0159] 6. Conjugate: Goat anti-rabbit IgG (H+L)-HRP conjugate. [0160] 7. TMB reagent. […] 8. Stop solution (1 N HCI). Method
(§3) 1. Dispense 100 μL of antibody diluent, diluted rabbit monoclonal human Id3, and mouse/human Id3 hybridoma supernatants into appropriate wells. […] 2. Incubate at room temperature with mechanical shaking at 750 rpm for 90 minutes. [0165] 3. Remove the incubation mixture by flicking plate content into an appropriate waste container followed by rinsing the wells 5 times with distilled water. [0166] 4. Strike the wells sharply onto absorbent paper or paper towels to remove all residual water droplets. [0167] 5. Dispense 100 μL of 1:50,000 Goat Anti-Rabbit IgG-HRP Conjugate Reagent into each well. Gently mix for 5 seconds. [0168] 6. Incubate at room temperature with mechanical shaking at 750 rpm for 90 minutes. [0169] 7. Repeat procedures 3 and 4. [0170] 8. Dispense 100 μL of TMB Reagent into each well. Gently mix for 5 seconds. [0171] 9. Incubate at room temperature with mechanical shaking at 750 rpm for 20 minutes. […] 10.

Human Id2: Histidine [2] = target: T2, Human Id2: Histidine (human, UniProt Q02363 1-134, limits assumed); assay: ELISA, Ab 0.250 µg/ml
T2 construct: Fusion protein made in E. coli from vector pGW07; also called h-Id2: His; not shown: His tag
T2 sequence (looked up): T1 sequence (looked up) with T60S, V131A
Protocol: as §1, §2, §3

[3] = target: T3, glutathione S-transferase (GST) (UniProt P08515 1-218 = GST); assay: ELISA, Ab 0.500 µg/ml
T3 construct: also called carrier protein GST
Protocol: as §1, §2, §3

Mouse Id2: Histidine [4] = target: T1, Mouse Id2: Histidine; assay: ELISA, Ab 0.500 µg/ml
Protocol: as §1, §2, §3

Mouse Id1: Histidine = target: T4, Mouse Id1: Histidine (mouse, UniProt P20067-2 1-148, limits assumed); assay: ELISA, Ab 0.050 µg/ml
T4 construct: Fusion protein made in E. coli from vector pGW07; also called m-Id1-His; not shown: His tag
T4 sequence (looked up): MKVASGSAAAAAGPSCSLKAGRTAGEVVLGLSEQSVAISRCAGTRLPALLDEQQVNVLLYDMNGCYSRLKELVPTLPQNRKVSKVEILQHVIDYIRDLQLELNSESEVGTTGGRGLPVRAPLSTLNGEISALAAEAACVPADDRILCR
Protocol: as §1, §2, §3

Human Id1: Histidine = target: T5, Human Id1: Histidine (human, UniProt P41134 1-155, limits assumed); assay: ELISA, Ab 0.050 µg/ml
T5 construct: Fusion protein made in E. coli from vector pGW07; also called h-Id1: his; not shown: His tag
T5 sequence (looked up): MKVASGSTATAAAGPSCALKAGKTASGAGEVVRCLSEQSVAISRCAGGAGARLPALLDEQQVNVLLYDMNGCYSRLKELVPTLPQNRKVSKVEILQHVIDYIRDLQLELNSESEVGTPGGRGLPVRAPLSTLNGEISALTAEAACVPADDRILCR
Protocol: as §1, §2, §3

Mouse Id2: Histidine [5] = target: T1, Mouse Id2: Histidine; assay: ELISA, Ab 0.050 µg/ml
Protocol: as §1, §2, §3

Human Id2: Histidine [6] = target: T2, Human Id2: Histidine; assay: ELISA, Ab 0.050 µg/ml
Protocol: as §1, §2, §3

Human Id3: Histidine [7] = target: T6, Human Id3: Histidine (human, UniProt Q02535 1-119 at identity 1.00)); assay: ELISA, Ab 0.250 µg/ml
T6 construct: Fusion protein made in E. coli from vector pGW07; also called h-Id3: His; Human Id3 (coated wells); not shown: His tag
T6 chain: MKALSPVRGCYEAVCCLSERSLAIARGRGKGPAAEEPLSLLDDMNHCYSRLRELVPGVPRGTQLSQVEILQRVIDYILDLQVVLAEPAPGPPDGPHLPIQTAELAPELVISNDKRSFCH
Protocol: as §1, §2, §3

Human Id3: Histidine [8] = target: T6, Human Id3: Histidine; assay: ELISA, Ab 0.050 µg/ml
Protocol: as §1, §2, §3

Mouse Id3: Histidine = target: T7, Mouse Id3: Histidine (mouse, UniProt P41133 1-119); assay: ELISA, Ab 0.050 µg/ml
T7 construct: Fusion protein made in E. coli from vector pGW07; also called m-Id3: His; Mouse Id3 (coated wells); not shown: His tag
T7 sequence: T6 chain with G31S, A33S, A34T, A105T, N112K
Protocol: as §1, §2, §3

T3 sequence (P08515 whole entry): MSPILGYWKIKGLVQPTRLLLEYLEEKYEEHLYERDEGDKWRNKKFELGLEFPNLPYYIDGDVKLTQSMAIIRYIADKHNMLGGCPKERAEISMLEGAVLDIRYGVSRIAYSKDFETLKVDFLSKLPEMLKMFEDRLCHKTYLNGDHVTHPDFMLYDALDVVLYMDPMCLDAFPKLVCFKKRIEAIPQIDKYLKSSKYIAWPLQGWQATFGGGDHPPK

Row | Binder | A450 (Mouse Id2: Histidine [1]) [A450] | A450 (Human Id2: Histidine [2]) [A450] | A450 [3] [A450] | A450 (Mouse Id2: Histidine [4]) [A450] | A450 (Mouse Id1: Histidine) [A450] | A450 (Human Id1: Histidine) [A450] | A450 (Mouse Id2: Histidine [5]) [A450] | A450 (Human Id2: Histidine [6]) [A450] | A450 (Human Id3: Histidine [7]) [A450] | A450 (Human Id3: Histidine [8]) [A450] | A450 (Mouse Id3: Histidine) [A450]
1 | B1 | 0.051 | 0.054 | 0.05 | 0.05 | 0.049 | 0.05 | 0.048 | 0.048 |  |  | 
2 | B2 | 0.063 | 0.052 | 0.053 | 0.067 | 0.044 | 0.047 | 0.051 | 0.044 | 2.83 | 1.4 | 1.57
3 | B3 | 0.064 | 0.054 | 0.053 | 0.069 | 0.048 | 0.044 | 0.054 | 0.049 | 3.32 | 1.8 | 2.19
4 | B4 | 0.062 | 0.056 | 0.054 | 0.066 | 0.046 | 0.052 | 0.051 | 0.046 | 3.02 | 1.61 | 1.75
5 | B5 | 0.063 | 0.051 | 0.049 | 0.075 | 0.05 | 0.045 | 0.051 | 0.047 | 3.31 | 2 | 2.23
